We go through one sequence from paper PMC3869713.

The target in data set [1] is CHK2 (UniProt O96017). Kind of data set: F-EMSA. Particulars: 25 mM Tris-HCl pH 8.0, 10 mM NaCl, 25 mM KCl, 5 mM MgCl2, 0.01% IGEPAL CA630, 10 ug/ml yeast tRNA, SUPERase-In; 2 nM RNA, room temperature 2 h; F-EMSA on …. Background: A gel shift assay detects complexes by their altered migration in electrophoresis.
In data set [2] the target is CHK2 (UniProt O96017). The data set is described as follows: fluorescence polarization. Particulars: 25 mM Tris-HCl pH 8.0, 10 mM NaCl, 25 mM KCl, 5 mM MgCl2, 0.01% IGEPAL CA630, 10 ug/ml yeast tRNA, SUPERase-In; 2 nM RNA, room temperature 2 h; F-EMSA on …. In general terms: Polarisation of emitted light reports the rotation of a fluorescent probe.

CHK2, sequence (O96017 whole entry): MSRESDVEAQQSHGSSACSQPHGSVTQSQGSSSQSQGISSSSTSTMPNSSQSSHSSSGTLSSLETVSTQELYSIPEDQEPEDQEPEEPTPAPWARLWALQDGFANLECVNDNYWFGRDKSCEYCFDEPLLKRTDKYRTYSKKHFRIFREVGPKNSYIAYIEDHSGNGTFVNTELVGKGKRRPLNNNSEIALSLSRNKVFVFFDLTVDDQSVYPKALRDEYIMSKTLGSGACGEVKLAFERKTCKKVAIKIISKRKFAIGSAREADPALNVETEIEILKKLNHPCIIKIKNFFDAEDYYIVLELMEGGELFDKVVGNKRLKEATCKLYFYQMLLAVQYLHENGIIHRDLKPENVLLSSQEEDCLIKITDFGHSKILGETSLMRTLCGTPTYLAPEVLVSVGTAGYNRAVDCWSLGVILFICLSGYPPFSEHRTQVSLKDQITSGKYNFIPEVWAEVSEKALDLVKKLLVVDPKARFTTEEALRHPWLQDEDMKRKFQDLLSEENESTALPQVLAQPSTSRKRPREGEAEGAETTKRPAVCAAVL

A word on the Kd: it is the constant that tells how readily two partners part at equilibrium. A high value points to weaker binding. For “GGGAAUGGAUCCACAUCUACGAAUUCGAUCGGUUCCAACGCUCUGUCGCCUAAGUGAACAGAUGAAGAAAAAAUAGCCCAAUAAGAGGCAACAAUCUUUCACUGCAGACUUGACGAAGCUU [C6M1]”, the Kd amounted to 180 nM with CHK2 [1] and 299 nM in the data set with CHK2 [2].
